According to patent US20200400662A1:
Where “and” joins values, the source holds several entries; their conditions need not be identical. Equal entries are not always repeated. Each block holds one binder with its values, some of them ahead of it.

Target: Drug A
Assay: cell-based or functional assay

hemagglutination of Drug A-coated erythrocytes with anti-IgG; molar excess of Fab that prevented it (fold molar excess relative to Drug A): 2500
B1: Fab fragment of Antibody A (Fab, V domains shown)
VH: DVQLVESGGGVVRPGESLRLSCAASGFSFSSYAMNWVRQAPGEGLEWVSRINSGGGGTDYAESVKGRFTISRDNSENTLYLQMNSLRAEDTAVYYCAKQYDWNSFFDYWGLGALVTVSS
VL: ETVLTQSPATLSVSPGERATLSCRASQTVGSKLAWHQQKPGQAPRLLIYDATNRATGISDRFSGSGSGTDFTLTISSLQTEDSAVYYCQQYYYWPPYRFGGGTKVEIK

hemagglutination of Drug A-coated erythrocytes with anti-IgG; molar excess of Fab that prevented it (fold molar excess relative to Drug A): 200 and 400
B2: Fab fragment of Antibody C (Fab, V domains shown)
VH: DVQLVESGGGVVRPGESLRLSCEASGFTFSSNAMSWVRQAPGKGLEWVAGISSGSDTYYGDSVKGRLTISRDNSKNILYLQMNSLTAEDTAVYYCARETWNHLFDYWGQGTLVTVSS
VL: SYELTQPPSVSVSPGQTARITCSGGSYSSYYYAWYQQKPGQAPVTLIYSDDKRPSNIPERFSGSSSGTTVTLTISGVQAEDEADYYCGGYDQSSYTNPFGGGTKLTVL
